Test results published in the RNAGym collection of RNA variant scans (doi:10.1021/acssynbio.7b00057).

B1: Pistol ribozyme (parent)
chain: GGGUCGUUGUUCCAUAAUCGCGUGGAUAUGGCACGCAAGUUUCUACCGGGCACCGUAAAUGUCCGACUGGAGCCGUUCGGGCGGCUAUAAACAGACCUCAGGCCCGAAGCGUGGCGGCACCUGCCGCCGGUGGUAAAAAAGAUCGGAAGAGCACACGUCU

Variants of: B1
Experiment: aptazyme ON/OFF ratio, guanine; higher = stronger switching; co-transcriptional cleavage with and without guanine

Row | Variant | aptazyme ON/OFF ratio
1 | GGGUCGAUCUAACAUAAUCGCGUGGAUAUGGCACGCAAGUUUCUACCGGGCACCGUAAAUGUCCGACUGGAGCCGUUCGGGCGGCUAUAAACAGACCUCAGGCCCGAAGCGUGGCGGCACCUGCCGCCGGUGGUAAAAAAGAUCGGAAGAGCACACGUCU [U7A G9C U11A C12A] | 1.07
2 | GGGUCGAUCUAGCAUAAUCGCGUGGAUAUGGCACGCAAGUUUCUACCGGGCACCGUAAAUGUCCGACUGGAGCCGUUCGGGCGGCUAUAAACAGACCUCAGGCCCGAAGCGUGGCGGCACCUGCCGCCGGUGGUAAAAAAGAUCGGAAGAGCACACGUCU [U7A G9C U11A C12G] | 1.08
3 | GGGUCGAUCUAUCAUAAUCGCGUGGAUAUGGCACGCAAGUUUCUACCGGGCACCGUAAAUGUCCGACUGGAGCCGUUCGGGCGGCUAUAAACAGACCUCAGGCCCGAAGCGUGGCGGCACCUGCCGCCGGUGGUAAAAAAGAUCGGAAGAGCACACGUCU [U7A G9C U11A C12U] | 1.09
4 | GGGUCGAUCUAUUAUAAUCGCGUGGAUAUGGCACGCAAGUUUCUACCGGGCACCGUAAAUGUCCGACUGGAGCCGUUCGGGCGGCUAUAAACAGACCUCAGGCCCGAAGCGUGGCGGCACCUGCCGCCGGUGGUAAAAAAGAUCGGAAGAGCACACGUCU [U7A G9C U11A C12U C13U] | 1.16
5 | GGGUCGAUCUAUGAUAAUCGCGUGGAUAUGGCACGCAAGUUUCUACCGGGCACCGUAAAUGUCCGACUGGAGCCGUUCGGGCGGCUAUAAACAGACCUCAGGCCCGAAGCGUGGCGGCACCUGCCGCCGGUGGUAAAAAAGAUCGGAAGAGCACACGUCU [U7A G9C U11A C12U C13G] | 1.07
6 | GGGUCGAUCUAUAAUAAUCGCGUGGAUAUGGCACGCAAGUUUCUACCGGGCACCGUAAAUGUCCGACUGGAGCCGUUCGGGCGGCUAUAAACAGACCUCAGGCCCGAAGCGUGGCGGCACCUGCCGCCGGUGGUAAAAAAGAUCGGAAGAGCACACGUCU [U7A G9C U11A C12U C13A] | 1.1
7 | GGGUCGAUCUAAGAUAAUCGCGUGGAUAUGGCACGCAAGUUUCUACCGGGCACCGUAAAUGUCCGACUGGAGCCGUUCGGGCGGCUAUAAACAGACCUCAGGCCCGAAGCGUGGCGGCACCUGCCGCCGGUGGUAAAAAAGAUCGGAAGAGCACACGUCU [U7A G9C U11A C12A C13G] | 1.05
8 | GGGUCGAUCUAAAAUAAUCGCGUGGAUAUGGCACGCAAGUUUCUACCGGGCACCGUAAAUGUCCGACUGGAGCCGUUCGGGCGGCUAUAAACAGACCUCAGGCCCGAAGCGUGGCGGCACCUGCCGCCGGUGGUAAAAAAGAUCGGAAGAGCACACGUCU [U7A G9C U11A C12A C13A] | 1.03
9 | GGGUCGAUCUAAUAUAAUCGCGUGGAUAUGGCACGCAAGUUUCUACCGGGCACCGUAAAUGUCCGACUGGAGCCGUUCGGGCGGCUAUAAACAGACCUCAGGCCCGAAGCGUGGCGGCACCUGCCGCCGGUGGUAAAAAAGAUCGGAAGAGCACACGUCU [U7A G9C U11A C12A C13U] | 1.11
10 | GGGUCGAUCUAGUAUAAUCGCGUGGAUAUGGCACGCAAGUUUCUACCGGGCACCGUAAAUGUCCGACUGGAGCCGUUCGGGCGGCUAUAAACAGACCUCAGGCCCGAAGCGUGGCGGCACCUGCCGCCGGUGGUAAAAAAGAUCGGAAGAGCACACGUCU [U7A G9C U11A C12G C13U] | 1.08
11 | GGGUCGAUCUAGAAUAAUCGCGUGGAUAUGGCACGCAAGUUUCUACCGGGCACCGUAAAUGUCCGACUGGAGCCGUUCGGGCGGCUAUAAACAGACCUCAGGCCCGAAGCGUGGCGGCACCUGCCGCCGGUGGUAAAAAAGAUCGGAAGAGCACACGUCU [U7A G9C U11A C12G C13A] | 1.04
12 | GGGUCGAUCUAGGAUAAUCGCGUGGAUAUGGCACGCAAGUUUCUACCGGGCACCGUAAAUGUCCGACUGGAGCCGUUCGGGCGGCUAUAAACAGACCUCAGGCCCGAAGCGUGGCGGCACCUGCCGCCGGUGGUAAAAAAGAUCGGAAGAGCACACGUCU [U7A G9C U11A C12G C13G] | 1.08
13 | GGGUCGAUCGGCGAUAAUCGCGUGGAUAUGGCACGCAAGUUUCUACCGGGCACCGUAAAUGUCCGACUGGAGCCGUUCGGGCGGCUAUAAACAGACCUCAGGCCCGAAGCGUGGCGGCACCUGCCGCCGGUGGUAAAAAAGAUCGGAAGAGCACACGUCU [U7A G9C U10G U11G C13G] | 1.17
14 | GGGUCGAUCGGCUAUAAUCGCGUGGAUAUGGCACGCAAGUUUCUACCGGGCACCGUAAAUGUCCGACUGGAGCCGUUCGGGCGGCUAUAAACAGACCUCAGGCCCGAAGCGUGGCGGCACCUGCCGCCGGUGGUAAAAAAGAUCGGAAGAGCACACGUCU [U7A G9C U10G U11G C13U] | 1.1
15 | GGGUCGAUCUACCAUAAUCGCGUGGAUAUGGCACGCAAGUUUCUACCGGGCACCGUAAAUGUCCGACUGGAGCCGUUCGGGCGGCUAUAAACAGACCUCAGGCCCGAAGCGUGGCGGCACCUGCCGCCGGUGGUAAAAAAGAUCGGAAGAGCACACGUCU [U7A G9C U11A] | 1.11
16 | GGGUCGAUCUACUAUAAUCGCGUGGAUAUGGCACGCAAGUUUCUACCGGGCACCGUAAAUGUCCGACUGGAGCCGUUCGGGCGGCUAUAAACAGACCUCAGGCCCGAAGCGUGGCGGCACCUGCCGCCGGUGGUAAAAAAGAUCGGAAGAGCACACGUCU [U7A G9C U11A C13U] | 1.07
17 | GGGUCGAUCUACGAUAAUCGCGUGGAUAUGGCACGCAAGUUUCUACCGGGCACCGUAAAUGUCCGACUGGAGCCGUUCGGGCGGCUAUAAACAGACCUCAGGCCCGAAGCGUGGCGGCACCUGCCGCCGGUGGUAAAAAAGAUCGGAAGAGCACACGUCU [U7A G9C U11A C13G] | 1.08
18 | GGGUCGAUCUACAAUAAUCGCGUGGAUAUGGCACGCAAGUUUCUACCGGGCACCGUAAAUGUCCGACUGGAGCCGUUCGGGCGGCUAUAAACAGACCUCAGGCCCGAAGCGUGGCGGCACCUGCCGCCGGUGGUAAAAAAGAUCGGAAGAGCACACGUCU [U7A G9C U11A C13A] | 1.02
